In paper PMC7791966 (Experimental and Therapeutic Medicine, 2020):

Target: Recombinant human HER2 (Homo sapiens, UniProt P04626)
Assay: SPR

B1: e23sFv, mouse anti-HER2 single-chain variable fragment (scFv, V domains shown)
VH: VQLQESGPEVVKPGGSMKISCKTSGYSFTGHTMNWVKQSHGKNLEWIGLINPYNGDTNYNQKFKGKATFTVDKSSSTAYMELLSLTSEDSAVYYCARRVTDWYFDVWGAGTTVTVS
VL: DLQLTQSPAILSASPGEKVTMTCRATPSVSYMHWYQQKPGSSPKPWIYTTSNLASGVPARFSGGGSGTSYSLTVSRVEAEDAATYYCQQWSRSPPTFGGGSKLEIK
Kd: 2.5 nM

B2: EMEY, e23sFv derivative with 11 point mutations in the framework regions (scFv, V domains shown)
VH: VQLQESGPELVKPGGSVKISCKASGYSFTGHTMNWVKQSHGKGLEWIGLINPYNGDTNYNQKFKGKATLTVDKSSSTAYMELSSLTSEDSAVYYCARRVTDWYFDVWGAGTTVTVS
VL: DLQLTQSPAILSASPGEKVTMTCRATPSVSYMHWYQQKPGTSPKLWIYTTSNLASGVPARFSGSGSGTSYSLTISRVEAEDAATYYCQQWSRSPPTFGGGTKLEIK
Kd: ~500 nM
